Test results: publication PMC9054839, “Mechanism of integrin activation by talin and its cooperation with kindlin” (Nature Communications, 2022)
No end group written: not given here.

Tests used:
Settings in all cases: both partners purified
paxillin 1–160 = target: T1, paxillin 1–160 (human, UniProt P49023-3 1-160); experiment: SPR; paxillin 1–160 amine-coupled to CM5, talin subdomains (0–12 μM) flowed over; 50 mM sodium phosphate pH 6.8, 150 mM NaCl, 25 °C; talin-R1–R4 fitted by a two-state model
T1 construct: paxillin-γ, human, N-terminal 1-160 containing LD1 and LD2, in pGST-1; also called paxillin-γ 1–160; paxillin N-terminal 1–160; source: E. coli BL21 (DE3), purified (GST column, gel filtration)
T1 sequence (P49023 1-160): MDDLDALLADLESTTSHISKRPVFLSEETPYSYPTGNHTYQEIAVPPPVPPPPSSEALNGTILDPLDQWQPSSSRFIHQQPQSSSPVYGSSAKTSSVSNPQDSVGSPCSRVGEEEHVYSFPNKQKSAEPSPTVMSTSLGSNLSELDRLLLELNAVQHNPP

[1] = target: T2, constitutively activated full-length talin mutant tlnM3 (M319A, T1767L, E1770K) (mouse, UniProt P26039 1-2541, M319A | T1767L | E1770K); experiment: SPR; GST-integrin beta3CT amine-coupled to CM5, talinH or tlnM3 (0–125 nM) flowed over; 50 mM sodium phosphate pH 6.8, 150 mM NaCl, 0.05% Tween 20, 0.03% BSA, 25 °C
T2 construct: talin (talin-1), mouse, full length 1-2541, in pET28T; also called active talin; talinFL TM; source: E. coli BL21 (DE3), purified (nickel column, Superose-6 gel filtration)
T2 sequence (P26039 whole entry M319A/T1767L/E1770K): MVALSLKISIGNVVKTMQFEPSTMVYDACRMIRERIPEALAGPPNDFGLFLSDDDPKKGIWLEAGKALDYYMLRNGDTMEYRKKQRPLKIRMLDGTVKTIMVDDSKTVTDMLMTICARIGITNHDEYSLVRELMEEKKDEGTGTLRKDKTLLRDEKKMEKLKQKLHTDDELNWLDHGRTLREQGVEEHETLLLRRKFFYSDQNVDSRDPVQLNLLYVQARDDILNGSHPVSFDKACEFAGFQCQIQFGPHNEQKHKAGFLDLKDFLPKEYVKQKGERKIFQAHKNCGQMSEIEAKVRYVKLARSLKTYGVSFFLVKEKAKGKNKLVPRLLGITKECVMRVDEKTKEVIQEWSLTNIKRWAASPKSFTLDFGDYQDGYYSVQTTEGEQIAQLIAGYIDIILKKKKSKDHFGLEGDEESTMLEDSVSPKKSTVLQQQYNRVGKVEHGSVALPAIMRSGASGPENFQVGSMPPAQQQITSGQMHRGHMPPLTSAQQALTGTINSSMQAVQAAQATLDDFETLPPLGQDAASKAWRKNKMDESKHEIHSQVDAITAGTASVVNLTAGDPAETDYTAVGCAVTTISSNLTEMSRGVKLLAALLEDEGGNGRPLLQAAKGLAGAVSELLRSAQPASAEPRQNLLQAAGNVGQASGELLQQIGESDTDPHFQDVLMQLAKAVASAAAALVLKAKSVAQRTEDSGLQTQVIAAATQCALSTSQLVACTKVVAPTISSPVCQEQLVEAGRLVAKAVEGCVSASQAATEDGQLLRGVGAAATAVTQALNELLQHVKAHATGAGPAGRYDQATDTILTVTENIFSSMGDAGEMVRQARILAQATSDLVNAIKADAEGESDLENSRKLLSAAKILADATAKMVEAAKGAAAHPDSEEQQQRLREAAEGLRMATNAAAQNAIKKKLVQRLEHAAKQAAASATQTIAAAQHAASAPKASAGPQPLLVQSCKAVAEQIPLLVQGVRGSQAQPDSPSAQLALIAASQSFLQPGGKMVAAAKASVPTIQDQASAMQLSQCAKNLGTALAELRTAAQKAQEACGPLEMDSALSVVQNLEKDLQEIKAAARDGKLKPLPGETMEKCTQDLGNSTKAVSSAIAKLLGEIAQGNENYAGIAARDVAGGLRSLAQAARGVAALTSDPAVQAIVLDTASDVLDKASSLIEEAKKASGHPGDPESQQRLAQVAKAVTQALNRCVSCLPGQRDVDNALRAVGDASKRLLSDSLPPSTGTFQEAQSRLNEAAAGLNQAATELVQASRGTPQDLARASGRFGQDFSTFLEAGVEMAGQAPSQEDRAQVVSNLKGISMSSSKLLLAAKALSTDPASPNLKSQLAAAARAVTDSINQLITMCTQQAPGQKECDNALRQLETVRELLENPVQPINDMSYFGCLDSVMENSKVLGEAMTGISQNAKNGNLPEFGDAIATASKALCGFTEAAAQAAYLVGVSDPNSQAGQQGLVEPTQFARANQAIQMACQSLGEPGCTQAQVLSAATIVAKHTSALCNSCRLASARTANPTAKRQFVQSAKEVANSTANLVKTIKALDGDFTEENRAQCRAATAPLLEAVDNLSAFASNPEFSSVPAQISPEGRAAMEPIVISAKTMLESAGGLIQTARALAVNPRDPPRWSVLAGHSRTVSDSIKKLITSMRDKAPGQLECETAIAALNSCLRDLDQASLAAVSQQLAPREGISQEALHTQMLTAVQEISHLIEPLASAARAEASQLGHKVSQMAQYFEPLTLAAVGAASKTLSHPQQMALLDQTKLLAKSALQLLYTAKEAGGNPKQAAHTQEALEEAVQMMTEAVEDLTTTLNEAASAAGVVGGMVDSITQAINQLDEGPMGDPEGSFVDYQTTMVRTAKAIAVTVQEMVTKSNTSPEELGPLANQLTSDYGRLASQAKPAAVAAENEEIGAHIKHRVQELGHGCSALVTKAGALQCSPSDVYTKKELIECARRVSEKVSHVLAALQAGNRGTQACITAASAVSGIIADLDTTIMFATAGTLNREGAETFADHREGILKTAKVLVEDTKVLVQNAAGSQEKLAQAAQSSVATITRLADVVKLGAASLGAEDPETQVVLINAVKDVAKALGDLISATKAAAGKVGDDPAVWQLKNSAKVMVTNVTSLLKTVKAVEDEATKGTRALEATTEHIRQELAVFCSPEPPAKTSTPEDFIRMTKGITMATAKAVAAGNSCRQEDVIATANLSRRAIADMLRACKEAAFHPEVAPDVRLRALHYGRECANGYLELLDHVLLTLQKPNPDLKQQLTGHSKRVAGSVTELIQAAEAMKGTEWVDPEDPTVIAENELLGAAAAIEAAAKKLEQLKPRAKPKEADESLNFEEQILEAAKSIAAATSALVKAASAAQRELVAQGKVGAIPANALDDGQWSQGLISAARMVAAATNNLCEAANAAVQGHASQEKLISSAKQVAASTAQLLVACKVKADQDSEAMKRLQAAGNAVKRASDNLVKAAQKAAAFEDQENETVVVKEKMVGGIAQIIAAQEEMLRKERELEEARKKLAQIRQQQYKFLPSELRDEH

[2] = target: T2, constitutively activated full-length …; experiment: pull-down; GST-paxillin (full length or fragments) on glutathione-Sepharose 4B beads, talin or talin fragments as prey; 25 mM Tris-HCl pH 7.5, 150 mM NaCl, 0.5 mM TCEP, 0.01 or 0.1% NP40, 4 °C; western blot or Coomassie
[3] = target: T2, constitutively activated full-length …; experiment: SPR; tlnM3 amine-coupled to CM5, paxiFL (0–500 nM) flowed over; 50 mM sodium phosphate pH 6.8, 150 mM NaCl, 25 °C; 1:1 model

B1: talin-R2 (domain or fragment, mouse, UniProt P26039 655-782, looked up)
chain: IGESDTDPHFQDVLMQLAKAVASAAAALVLKAKSVAQRTEDSGLQTQVIAAATQCALSTSQLVACTKVVAPTISSPVCQEQLVEAGRLVAKAVEGCVSASQAATEDGQLLRGVGAAATAVTQALNELL
notes: talin (talin-1), mouse, rod subdomain R2; source: E. coli BL21 (DE3), purified
- Kd (paxillin 1–160): ~2210 nM

B2: GST-integrin beta3 cytoplasmic tail (domain or fragment, UniProt P05106 742-788, looked up)
chain: {GST}-KLLITIHDRKEFAKFEEERARAKWDTANNPLYKEATSTFTNITYRGT
notes: integrin β3 cytoplasmic tail; also called integrin-β3 CT; GST-integrin beta3CT; source: E. coli BL21 (DE3), purified
- Kd [1]: ~14.5 nM

B3: GST-paxillin 1–160 (domain or fragment)
chain: not shown
notes: paxillin-γ, human, N-terminal 1-160 containing LD1 and LD2, in pGST-1; also called paxi1–160; source: E. coli BL21 (DE3), purified (GST column, gel filtration)
- binding result [2]: binds

B4: talin-F3 (domain or fragment)
chain: GVSFFLVKEKMKGKNKLVPRLLGITKECVMRVDEKTKEVIQEWSLTNIKRWAASPKSFTLDFGDYQDGYYSVQTTEGEQIAQLIAGYIDIILKKKKS
- Kd (paxillin 1–160): ~3510 nM

B5: full-length paxillin (natural protein)
chain: not shown
notes: also called paxiFL; paxillin-γ; source: E. coli BL21 (DE3), purified (GST column, gel filtration)
- Kd [3]: ~33.1 nM
- stoichiometry N [3]: 1

B6: talin-R8 (domain or fragment, mouse, UniProt P26039 1461-1580, looked up)
chain: LVEPTQFARANQAIQMACQSLGEPGCTQAQVLSAATIVAKHTSALCNSCRLASARTANPTAKRQFVQSAKEVANSTANLVKTIKALDGDFTEENRAQCRAATAPLLEAVDNLSAFASNPE
notes: talin (talin-1), mouse, rod subdomain R8; source: E. coli BL21 (DE3), purified
- Kd (paxillin 1–160): ~5370 nM
